Experimental data as given in the nanobody polyreactivity screen of Harvey et al. (2022).

Experiment: yeast display, Sf9 membrane polyspecificity reagent, FACS + sequencing; frameworks hold sequencing errors
Summary of the method: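 After 36–48 hours of galactose induction, yeast (Saccharomyces cerevisiae BJ5465) displaying a synthetic nanobody library were stained at 4 °C for 1 hour with 10% biotinylated, detergent-solubilized Sf9 membrane reagent. Streptavidin microbeads enriched the stained cells before FACS sorting into low and high (top ~1%) gates on anti-HA and streptavidin fluorescence. Each clone's polyreactivity label reflects its gate of origin.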
In the case of “QVQLVESVGGLVQAGGSLRLSCAASGRTFRTYTMGWYRQAPGKERGLVAAITSTGSTYYADSVKGRFTISRDNAKNTVYLQMNSLKPEDTAVYYCNVVRRLRPYRGTGPNLEYYYWGQGTQVTVSS”, the “polyreactivity (PSR sort gate)” value is reported as “high polyreactivity”. In the case of “QVQLVESGGGLDQAGGSLRLSCAASGGTFARYAMGWYRQAPGKERELVAAISARGGSTYYADSVKGRFTISRDNAKNTVYLQMNSLKPEDTAVYYCAAKKWYDRYGFDYWGQGTQVTVSS”, the “polyreactivity (PSR sort gate)” value is reported as “high polyreactivity”. With “QVQLVESGGGLVQAGGSLRLSCAASGFIFEWYTMGWYRQAPGKERELVARISSDGSTTYADSVKGRFTISRDNAKNTVYLQMNSLNPEDTAVYYCAADVTYPGLIYIYDYWGQGTQVTVSS” the “polyreactivity (PSR sort gate)” value was “low polyreactivity”. For “QVQLVESGGGLVQAGGSLRLSCAASGRTFVSYDMGWYRQAPGKERELVAAITYSGGSSTYYADSVKGRFTISRDNAKNTVYLQMNSLKPEDTAVYYCATDYSLSFELDYWGQGTQVTVSS”, the “polyreactivity (PSR sort gate)” value was “low polyreactivity”. With “QVQLVETGGGLVQAGGSHRLSCAASVRTLYKNAMGWYRQEPGKERELVAAISVSGGRTYYADSVKGRFTISRDNAKNTVYFQMNSLKPEDTAVYYCATRLYPISKYGYWGQGTQVTVSS” the “polyreactivity (PSR sort gate)” value was “high polyreactivity”. For “QVQLVESGGGLVQAGGSLRLSCAASGRIVPGNVMGWYRQAPGKERELVAAISSSGGSTYYADSVKGRFTISRDNAKNTVYLQMNSLKPEDTAVYYCNVRSGGKRRYSGRVDYWGQGTQVTVSS”, the “polyreactivity (PSR sort gate)” value was “low polyreactivity”. For “QVQLVESGGGLVQAGGSLRLSCAAYGRIFAPNAMGWYRQAPGKERELVATISWSGGSTYYADSVNGRFTISRDNSKNYVYLQMNSLKPEDTAVYYCAGSNYQYGVISYDYWGKGTQVTVSS”, the “polyreactivity (PSR sort gate)” value was “low polyreactivity”. For “QVQLVESGGGLVQAGGSLRLSCAASGSTFYRNAMGWYRQAPGKEREFVATINRGGSTYYADSVKGRFTISRDNAKNTVYLQMNSLKPEDTAVYYCNAKYKQRHGYSAVTSYATYDYWGQGTQVTVSS”, the “polyreactivity (PSR sort gate)” value was “high polyreactivity”. In the case of “QVQLVESGGGLVQAGGSLRLSCAASGRIIYPYVMGWYRQAHGKERELVAAITRSGDRTYYADSVKGRFTISRDNAKNTVYLQMNSLKPEDTAVYYCAATNVRGVYYWGQGTQVTVSS”, the “polyreactivity (PSR sort gate)” value is reported as “high polyreactivity”. For “QVQLVESGGGLVQAGGSLRLSCAASGLIFWLNAMGWYRQAPGKERELVAAISSSGGRTYYADSVKGRFTISRDNAKNTVYLQMNSLKPEDTAVYYCNRGQQGRGWWGYDYWGHGTQVTVSS”, the “polyreactivity (PSR sort gate)” value was “high polyreactivity”. With “QVQLVESGGVLVQAGGSLRLTCAAYGFSFSTYAMGWYRQAPGKERQLVASIDWSGDSTYYADSVKGRFTISRDNAKNTVYLQMNSLKPEDTAVYYCAADDASYPYIFDSYDYWGQGTQVTVSS” the “polyreactivity (PSR sort gate)” value was “low polyreactivity”. For “QVQLVESGGGLVQAGGSLRLSCAASGSTFGAYAMGWYRQAPGKERELVAAINRGTSTNYADSVKGRFTISRDNAKNTVYLQMNSLKPEDTAVYYCAVAVLPWQLYSESYAEYDYWGQGTQVTVSS”, the “polyreactivity (PSR sort gate)” value was “low polyreactivity”. In the case of “QVQLVESGGGLVQAGGSLRLSCAASGSTFPLNAMAWYRHAPGKERELVAAITWSGANTYYADSVKGRFTISRDNAKNTVYLQMNSLKPEDTAVYYCAAGSYAGFAVIGYYYWGQGTQVTVSS”, the “polyreactivity (PSR sort gate)” value is reported as “low polyreactivity”. With “QVQLVESGGGLVQAGGSLRLICAASGSTFARNAMGWYRQAPGKERELVAAITTRGSSTYYADSVKGRFTISRDNAKNTVYLQMNSLKPEDTAVYYCAADSRRSWYWGGYRQTGMGYWGQGTQLTVSS” the “polyreactivity (PSR sort gate)” value was “high polyreactivity”. In the case of “QVQLVESGGGLVQAGGSLRLSCAACGRTLRTYGMGWYRQAPGKERELVATITRRGDSTYYADSVKGRFTISRDNAKNTVYLQMNSLKPEDTAVYYSNTASYGRHQFRKSSKMDYWGQGTQVTVSS”, the “polyreactivity (PSR sort gate)” value is reported as “high polyreactivity”. For “QVHLVESGGGLVQAGGSLRLSCAASGRTIKRYAMGWYRQAPGKERELVATISRSGSSTYYADSVKGRFTISRANAMNTVYLQMNSLKPEDTAVYYCNAYVPDIWVNGYDSWGQGTQVTVSS”, the “polyreactivity (PSR sort gate)” value was “high polyreactivity”. With “QVQLVESGGGLVQAGGSLRLSCADSGSTFGLYAMGGYRQSPGKEREMVAAITWGGGSTYYADSVKVRFTISRDNAKNTVYFQMNSLKPEDTAVYYCAASPIYPVYRRHGYWGQGTQVTVSW” the “polyreactivity (PSR sort gate)” value was “high polyreactivity”. With “QVQLVESGGGLVQAGCSLRLSCAASGRTFITNAMGWYRQAPGKVRELVAAISSGTGGRTYYADSVKGRFTISRDKAKNTVYFQMNSRKPEDTAVYYCAARSTKYYPYGYWGQGTQVTVTS” the “polyreactivity (PSR sort gate)” value was “high polyreactivity”. For “QVQIVESWGGLVQAGGSLRVSCATSGGIFRFNAMGSYRHAPGKERELVAAITSSVGSTYYADSVKGRFTFSRDNAKNTVDLQLNSLKPEDTAVDDCAAVITRVAIVFSTEYDYWGQGTQVTVSS”, the “polyreactivity (PSR sort gate)” value was “low polyreactivity”. In the case of “QVQLVESGGGLVQAGGSLRLSCAASGLIFNRYTMGWYRQAPGKERELVAAINRSGGNTYYADSVKGRFTISRDNAKNTVYLQMNSLKPEDTAVYYCNADYFSRTGYKYDYWGQGTQVTVSS”, the “polyreactivity (PSR sort gate)” value is reported as “high polyreactivity”. For “QVQLVESGGGLVQAGGSLRLSCAASGSIFGGYGMGWYRQAPGKERELVAAINSGSSTYYADSVKGRFTISRDNAKNTVYLQMNSLKPEDTAVYYCAARPYPHSAYEGDYWGRGTQVTVSS”, the “polyreactivity (PSR sort gate)” value was “low polyreactivity”. With “QVQLVESGGGLVQAGGSLRLSCAASGGTIYRNAMGWYRQAPGKEREMVASITRGGSTTYADSVKGRFTISRDNAKNTVYLQMNCLKPEATAVYYCNAPGQQRYDSWGQGTQVTVSS” the “polyreactivity (PSR sort gate)” value was “high polyreactivity”. For “QVQLVESGGGLVQAVGSLRLSCAASGHIFCYYTMGRYRQAPGKERELVAGITIGGSTNYADSVKGRFTISRDNAKNTVYLQMNSLKPEDTAVYYCNVVKYVYIYSYWEYYYWGQGTQVTVSS”, the “polyreactivity (PSR sort gate)” value was “low polyreactivity”. With “QVQLVESGGGLVQAGGSLRLSCAASGSTFRYYVMGWYRQAPGKERELVAAISSSGGSTYYADSVKGRFTISRDIAKNTVYLQMNSLKPEDTAVYYCARDKGYVSYRYNYWGQGTQVTVSS” the “polyreactivity (PSR sort gate)” value was “high polyreactivity”. In the case of “QVQLVESGGGLVQAGGSLRLSCAASGFTFSYNSMGRYRQATAKERELVARISRTGGSTNYADSVKGRFTISRDNAKNTVYLQMNSLKPEDTAVYYCATGYRYTYGSWGQGTQVTVSS”, the “polyreactivity (PSR sort gate)” value is reported as “high polyreactivity”. In the case of “QVQLGESGGGLVQAGGSLRLSCAASGSIFRRYARGWYRQAPGKERELVAAISSSGGRTYYADSVKGRFTISRDNAKNTVYLQMNSLKPEETAVYYCAKDTYGFAANRPAGDGYWGQGTQVTVSS”, the “polyreactivity (PSR sort gate)” value is reported as “high polyreactivity”. With “QVQLVESGGALGQAGGSLRLSCAASGFTFRIYDMGWYRHAPGKETELVAAITNGGSTDYADSVKGRFTISRDNAKNTVYLQMNSLKPEDTAVYYCAADVTYQVYDLVSVWYDYWGQGTQVTVSS” the “polyreactivity (PSR sort gate)” value was “low polyreactivity”. In the case of “QVQLVESGGGLVQAGGSLRLSCAASGRTFTQYAMGWYRQAPGKERELVARISYSGGTTYYADSVKGRFTISRDNAKNTVYLQMNSLKPEDTAVYYCARDYYGSVRFDHWGQGTQVTVSS”, the “polyreactivity (PSR sort gate)” value is reported as “high polyreactivity”. With “QVQLVESGGGLVQAGGSLRLSCAASGRTFYLNAMGWYRPAPGKDRELVATITSRAGSTRYADSVKGRFTISRDNAKNTVYLQMNSLKPEDTAVYYCAVRSTDPYRRGPSYYYWGQGTQVTVSS” the “polyreactivity (PSR sort gate)” value was “high polyreactivity”. For “QVQLVESGGGLVQAGGSLRLSCAASGGIFIYNAMGWYRQAPGKEREFVAAINISGGNTYYADSVKGRFTISRDNAKNTVYLQMNSLKPEDTAVYYCAKSGRYGFWGQGTQVTVSS”, the “polyreactivity (PSR sort gate)” value was “high polyreactivity”. With “QVQLVESVGGLVQAGGSLRLSCAASGITFYKYAMGWYRQAPGKERELVASIDRVGITNYADSVKGRFTISRDNAKNTVYLQMNSLKPEDTAVFYCNADYYRYYSITYGGDYWGQGTQVTVSS” the “polyreactivity (PSR sort gate)” value was “high polyreactivity”.
